Test results from article PMC7188400 (mAbs, 2020).

B1: R3bH01, parental chimeric chicken-human IgG1 anti-BDNF antibody (antibody, V domains shown)
VH: AVTLDESGGGLQTPGGGLSLVCKASGFDFSSYDMHWVRQAPGKGLEWVAGIDDGGSDTYYGSAVKGRATISRDNGQSTVRLQLNNLRAEDTGTYYCAKSSYDISWNGHVENIDAWGHGTEVIVSS
VL: ALTQPTSVSTNLGGTVEITCSGAGSGYGYGWFQQKSPGSAPVTVIYSNDKRPSDIPSRFSGSKSGSTGTLTITGVQAEDEAVYFCGTYDSTDAGYAIFGAGTTLTVL
B2: B30, humanized and affinity-optimized anti-BDNF IgG1 (antibody, V domains shown)
VH: not shown
VL: SSELTQPPAVSVALGQTVRITCSGAGSGYGYGWYQQKPGQAPVTVIYSNDKRPSGIPDRFSGSSSGNTASLTITGAQAEDEADYYCGTYVSAYYGYAIFGGGTKLTVL
B3: B30 Fab (Fab, V domains shown)
VH: not shown
VL: B2 VL

Assays:
[1] = target: human BDNF (Sino Biological Inc., Catalog 50240-MNAS) (Homo sapiens, UniProt P23560); experiment: SPR
[2] = target: human BDNF (KinExA; supplier not stated) (Homo sapiens, UniProt P23560); experiment: kinetic exclusion assay
Chain of human BDNF (KinExA; supplier not stated) (P23560 129-247): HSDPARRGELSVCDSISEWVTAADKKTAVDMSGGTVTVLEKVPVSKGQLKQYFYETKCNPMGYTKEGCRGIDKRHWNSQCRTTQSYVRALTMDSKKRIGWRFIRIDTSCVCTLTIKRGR

Chain of human BDNF (Sino Biological Inc., Catalog 50240-MNAS) (P23560 129-247): as above

| Binder | Kd [1] [nM] | Kd [2] [nM] |
| --- | --- | --- |
| B1 | 34.4 ± 5.43 | – |
| B2 | 0.12 ± 0.01 | – |
| B3 | – | 0.00106 |
